Patent US20250276092A1 (Regeneron, published 2025)
Values belong to the binder of their own block, whether it stands above or below them.

Assays:
[1] = molecular target: T1, human CD40 expressed on cells (human, UniProt P25942 21-277); experiment: cell-based or functional assay
[2] = molecular target: T1, human CD40 expressed on cells; experiment: cell-based or functional assay; remark: listed apart in the source
[3] = molecular target: T1, human CD40 expressed on cells; experiment: cell-based or functional assay; remark: listed apart in the source
[4] = molecular target: T1, human CD40 expressed on cells; experiment: cell-based or functional assay; remark: listed apart in the source
[5] = molecular target: T1, human CD40 expressed on cells; experiment: cell-based or functional assay; remark: listed apart in the source
[6] = molecular target: T1, human CD40 expressed on cells; experiment: cell-based or functional assay; remark: listed apart in the source
[7] = molecular target: T2, human CD40 extracellular domain expressed with a C-terminal myc-myc-hexahistidine tag (human); experiment: BLI Octet, hCD40-MMH captured on anti-Penta-His tips
T2 construct: also called hCD40-MMH; hCD40-mmH
Protocol: Binding competition between different anti-CD40 monoclonal antibodies (mAbs) was determined using a real time, label-free bio-layer interferometry (BLI) assay on the Octet HTX biosensor platform (Pall ForteBio Corp.). In addition to parental antibodies 21519P2, 21520P2, and 30027P2, a comparator anti-CD40 antibody (REGN11209) was also tested; this comparator has the heavy chain and light chain sequences of iscalimab (see, U.S. Pat. No. 8,828,396). The entire experiment was performed at 25° C. in 10 mM HEPES buffer containing 150 mM NaCl, 3 mM EDTA, 1 mg/mL BSA, 0.02% NaN₃, and 0.05% v/v Surfactant Tween-20 at pH 7.4 (HBS-EP) with the plate shaking at a speed of 1000 rpm.
To assess the ability of one antibody to compete with another antibody for binding to CD40, around 0.47 nm-0.54 nm of recombinant human CD40 extracellular domain expressed with a C-terminal myc-myc-hexahistidine (hCD40-MMH; SEQ ID NO: 53) was first captured onto anti-Penta-His antibody coated Octet biosensor tips (Fortebio Inc, #18-5122) by submerging the biosensor tips in wells containing 10 μg/mL solution of the hCD40-MMH for 90 seconds. […] The real-time binding response was monitored and the binding response at the end of every step was recorded. […]
Target sequence in this assay (chain, as listed by the source limits assumed): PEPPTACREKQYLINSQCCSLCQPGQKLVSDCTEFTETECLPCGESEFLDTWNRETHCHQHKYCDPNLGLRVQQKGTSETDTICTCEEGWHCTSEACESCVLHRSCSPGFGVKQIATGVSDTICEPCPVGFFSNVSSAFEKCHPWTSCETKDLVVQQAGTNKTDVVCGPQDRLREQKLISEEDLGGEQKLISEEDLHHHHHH

[8] = molecular target: T3, monkey CD40 extracellular domain expressed with a C-terminal myc-myc-hexahistidine tag (monkey); experiment: SPR 25C, captured mAb
T3 construct: also called mfCD40-MMH; REGN3097
T3 chain: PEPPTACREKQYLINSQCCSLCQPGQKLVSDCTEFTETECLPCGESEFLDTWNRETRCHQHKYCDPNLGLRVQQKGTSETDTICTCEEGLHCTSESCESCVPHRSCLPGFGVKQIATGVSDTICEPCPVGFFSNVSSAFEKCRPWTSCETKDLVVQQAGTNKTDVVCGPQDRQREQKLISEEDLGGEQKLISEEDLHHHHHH
Protocol: (§1) The equilibrium dissociation constants (KD) for anti-CD40 bivalent and bispecific monoclonal antibodies (mAbs) were determined using a real-time surface plasmon resonance (SPR)-based Biacore 4000 biosensor. All binding studies were performed in 10 mM HEPES, 150 mM NaCl, 3 mM EDTA, and 0.05% v/v surfactant Tween-20, pH 7.4 (HBS-ET) running buffer at 25° C. and 37° C. The Biacore CM5 sensor surface was first derivatized by amine coupling with a monoclonal mouse anti-human Fc antibody (REGN2567) to capture anti-CD40 bivalent parental and anti-CD40×CD40 bispecific antibodies. Different concentrations of CD40 reagents, human CD40 extracellular domain expressed with a C-terminal myc-myc-hexahistidine tag (“hCD40-MMH”; REGN3094; SEQ ID NO: 53), monkey CD40 extracellular domain expressed with a C-terminal myc-myc-hexahistidine tag (“mfCD40-MMH”; REGN3097; SEQ ID NO: 54), and mouse CD40 extracellular domain expressed with a C-terminal myc-myc-hexahistidine tag (“mCD40-MMH”; REGN3098; SEQ ID NO: 55), at concentrations ranging from 3.7 nM to 100 nM or 3.3 nM to 90 nM in a series of 3-fold dilutions prepared in HBS-ET running buffer were injected at a flow rate of […] for 4 minutes or […] for 5 minutes. The dissociation of different CD40 reagents bound to anti-CD40 bivalent parental and anti-CD40×CD40 bispecific antibodies was monitored for 10 minutes in HBS-ET running buffer. At the end of each cycle, the anti-CD40 bivalent parental and anti-CD40×CD40 bispecific antibodies capture surface was regenerated using a 12 sec injection of 20 mM H₃PO₄.
(§2) The association rate (ka) and dissociation rate (kd) were determined by fitting the real-time binding sensorgrams to a 1:1 binding model with mass transport limitation using Scrubber 2.0c curve-fitting software. Binding dissociation equilibrium constant (KD) and dissociative half-life (t½) were calculated from the kinetic rates as: KD (M)=kd/kₐ, and t_{1/2} (min)=[ln(2)/(60*kd)].

[9] = molecular target: T4, mouse CD40 extracellular domain expressed with a C-terminal myc-myc-hexahistidine tag (mouse); experiment: SPR 25C, captured mAb
T4 construct: also called mCD40-MMH; REGN3098
T4 chain: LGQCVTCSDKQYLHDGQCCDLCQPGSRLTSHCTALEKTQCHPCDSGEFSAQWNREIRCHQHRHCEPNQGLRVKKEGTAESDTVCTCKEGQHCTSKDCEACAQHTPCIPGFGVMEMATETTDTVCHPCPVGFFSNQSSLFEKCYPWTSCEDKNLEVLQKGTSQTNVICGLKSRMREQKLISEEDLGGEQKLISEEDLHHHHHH
Protocol: as §1, §2

[10] = molecular target: T2, human CD40 extracellular domain …; experiment: SPR 25C, captured mAb
Protocol: as §1, §2

[11] = molecular target: T4, mouse CD40 extracellular domain …; experiment: SPR 37C, captured mAb
Protocol: as §1, §2

[12] = molecular target: T2, human CD40 extracellular domain …; experiment: SPR 37C, captured mAb
Protocol: as §1, §2

[13] = molecular target: T1, human CD40 expressed on cells; experiment: cell-based or functional assay; remark: listed apart in the source
[14] = molecular target: T1, human CD40 expressed on cells; experiment: cell-based or functional assay; remark: listed apart in the source
[15] = molecular target: T1, human CD40 expressed on cells; experiment: cell-based or functional assay; remark: listed apart in the source
[16] = molecular target: T2, human CD40 extracellular domain …; experiment: ELISA, blocks 40 nM hCD40-mmH binding to coated 9His-hCD40L
Protocol: In the blocking assay, 9His-hCD40L was passively absorbed at a concentration of 5 μg/mL in PBS on a 96-well microtiter plate overnight at 4° C. […] In a separate 96-well microtiter plate, a fixed amount of 40 nM hCD40-mmH was pre-mixed with one of the following antibodies, at concentrations ranging from 977 pM to 1 μM in PBS+0.5% BSA: (1) anti-CD40×CD40 bispecific antibodies (REGN16431, REGN16432, REGN16634, and REGN16335); (2) parental anti-CD40 mAbs (bivalent antibodies comprising 2 fragment antigen-binding [Fab] arms identical to one of anti-CD40 Fab of anti-CD40×CD40 antibodies); (3) anti-CD40×Irrelevant antibodies (bivalent antibodies that incorporate one Fab arm identical to one of anti-CD40 Fab of anti-CD40×CD40 antibodies and another Fab arm specific to an irrelevant antigen); and (4) human IgG4 with Fc mutation isotype control antibodies (REGN7540 and REGN4513). The fixed concentration of hCD40-mmH was selected to be near the concentration (EC₅₀ value) that generated 50% of the maximal binding to the plate-adhered 9His-hCD40L. After one-hour incubation, the antibody-antigen complexes were transferred to the microtiter plate coated with 9His-hCD40L. After one hour incubation at room temperature, the plates were washed, and plate-bound hCD40-mmH protein was detected with horseradish peroxidase (HRP) conjugated goat anti-c-Myc antibody. The plates were then developed using TMB substrate solution (BD Biosciences) according to the manufacturer's recommended procedure and the absorbance at 450 nm (OD₄₅₀) was measured on a SpectraMax i3× plate reader.
Binding data were analyzed using a sigmoidal (four-parameter logistic) dose-response model with GraphPad Prism™ software. […] The percent blocking of tested antibodies at the highest tested concentration ([…]) was calculated based on the formula shown below: […]

T1 sequence (P25942 21-277): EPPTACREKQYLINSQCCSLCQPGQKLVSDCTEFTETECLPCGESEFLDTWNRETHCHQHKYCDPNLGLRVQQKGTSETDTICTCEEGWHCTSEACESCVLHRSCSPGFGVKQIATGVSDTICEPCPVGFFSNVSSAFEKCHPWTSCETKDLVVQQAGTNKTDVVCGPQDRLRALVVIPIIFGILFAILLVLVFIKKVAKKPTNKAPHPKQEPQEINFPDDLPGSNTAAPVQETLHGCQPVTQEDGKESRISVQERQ

- % max blockade relative to no mAb, IL-6, B cells, donor 1 [1]: 84.2%
- % max blockade relative to no mAb, IL-6, B cells, donor 2 [1]: 91.3%
- % max blockade relative to no mAb, IL-6, B cells, donor 3 [1]: 91.3%
- % max blockade relative to no mAb, IL-10, B cells, donor 1 [2]: 84.1%
- % max blockade relative to no mAb, IL-10, B cells, donor 2 [2]: 91.7%
- % max blockade relative to no mAb, IL-10, B cells, donor 3 [2]: 91.4%
- % max blockade relative to no mAb, TNFa, B cells, donor 1 [3]: 53.9%
- % max blockade relative to no mAb, TNFa, B cells, donor 2 [3]: 71.4%
- % max blockade relative to no mAb, TNFa, B cells, donor 3 [3]: 73.9%
- % max blockade relative to no mAb, IL-6, assay #2, donor 1 [4]: 88.6%
- % max blockade relative to no mAb, IL-6, assay #2, donor 2 [4]: 88.3%
- % max blockade relative to no mAb, IL-10, assay #2, donor 1 [5]: 88.1%
- % max blockade relative to no mAb, IL-10, assay #2, donor 2 [5]: 90.5%
- % max blockade relative to no mAb, TNFa, assay #2, donor 1 [6]: 62%
- % max blockade relative to no mAb, TNFa, assay #2, donor 2 [6]: 50.6%
- binding result [7]: binds
B1: REGN11209 (comparator anti-CD40 antibody with the heavy chain and light chain sequences of iscalimab) (antibody, human IgG1, kappa, N297A, V domains shown)
VH: QVQLVESGGGVVQPGRSLRLSCAASGFTFSSYGMHWVRQAPGKGLEWVAVISYEESNRYHADSVKGRFTISRDNSKITLYLQMNSLRTEDTAVYYCARDGGIAAPGPDYWGQGTLVTVSS
VL: DIVMTQSPLSLTVTPGEPASISCRSSQSLLYSNGYNYLDWYLQKPGQSPQVLISLGSNRASGVPDRFSGSGSGTDFTLKISRVEAEDVGVYYCMQARQTPFTFGPGTKVDIRR
notes: also called COMP11209; CFZ533

- 100 nM Ag Bound (RU) [8]: 10.1 RU
- 100 nM Ag Bound (RU) [9]: -0.5 RU
- 100 nM Ag Bound (RU) [10]: 76.6 RU
- 100 nM Ag Bound (RU) [11]: 0.2 RU
- 100 nM Ag Bound (RU) [12]: 67.2 RU
- EC50, NFkB-luc Ramos, no ligand [13]: > 10 nM
- IC50 (three highest concentrations excluded, hook effect), NFkB-luc Ramos, 500 pM hCD40L [13]: 8.06e-11 M
- Max % activation, NFkB-luc Ramos, no ligand [13]: 49%
- Max % inhibition, NFkB-luc Ramos, 500 pM hCD40L [13]: 63%
- EC50, NFkB-luc Raji, no ligand [14]: > 100 nM
- IC50, NFkB-luc Raji, 900 pM hCD40L [14]: 7.7e-11 M
- Max % activation, NFkB-luc Raji, no ligand [14]: 25%
- Max % inhibition, NFkB-luc Raji, 900 pM hCD40L [14]: 81%
- IC50, NFkB-luc THP-1, 10 nM hCD40L [15]: 0.437 nM
- Max % activation, NFkB-luc THP-1, no ligand [15]: 1%
- Max % inhibition, NFkB-luc THP-1, 10 nM hCD40L [15]: 97%
- % Blocking at highest mAb concentration [16]: 94%
B2: 21520P2 (antibody, human IgG4 S228P, kappa, V domains shown)
VH: EVQLVESGGGLVQPGGSLRLSCAASGFTFGSYGMAWVRQAPGKGLEWVSAISGSGDYTNYADSVKRRFTISRDNSKNTLYLQMSSLRAEDTAVYYCAKEKTGTTGYLYSGMDVWGQGTTVTVSS
VL: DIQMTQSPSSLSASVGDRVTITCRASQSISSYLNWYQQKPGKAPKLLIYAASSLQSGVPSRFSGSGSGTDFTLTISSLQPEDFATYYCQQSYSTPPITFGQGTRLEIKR
notes: Parental bivalent anti-CD40 mAb; also called H4sH21520P2
